Key:
[1] = biological target: human CD47 on the cell surface (human); assay: cell binding to HT1080 tumor cells in a 1:10 mixture with red blood cells
[2] = biological target: human CD47 on the cell surface (human); assay: cell binding to red blood cells in a 1:10 mixture of HT1080 cells and red blood cells

EC50 [1]: < 0.1 nM
EC50 [2]: < 0.1 nM
Substance: monospecific anti-CD47 mAb 5F9 (antibody)

Source: patent US20210179716A1
